For assay [1], the target named is T1, human DR4 (Death Receptor 4), cell surface expressed on human tumor cell lines (human, UniProt O00220 24-468).
T1 construct: also called TNFRSF10A; TRAIL-R1
T1 sequence: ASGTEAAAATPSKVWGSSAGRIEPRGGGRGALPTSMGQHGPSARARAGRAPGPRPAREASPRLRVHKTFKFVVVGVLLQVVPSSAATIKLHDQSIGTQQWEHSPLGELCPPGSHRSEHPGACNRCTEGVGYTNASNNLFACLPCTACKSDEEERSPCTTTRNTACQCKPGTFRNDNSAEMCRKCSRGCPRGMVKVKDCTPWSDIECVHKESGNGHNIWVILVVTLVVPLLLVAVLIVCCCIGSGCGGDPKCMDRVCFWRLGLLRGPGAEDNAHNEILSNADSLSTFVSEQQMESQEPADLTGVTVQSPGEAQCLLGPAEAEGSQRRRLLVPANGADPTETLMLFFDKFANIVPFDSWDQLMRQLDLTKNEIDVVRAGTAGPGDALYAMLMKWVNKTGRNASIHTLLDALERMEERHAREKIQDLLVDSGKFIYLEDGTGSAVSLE
As to the kind of experiment: flow cytometry, HCT-116 cells, n = 2.

In assay [2] the target is T1, human DR4 (Death Receptor 4), cell …. As to the kind of experiment: flow cytometry, HCT-116 cells, n = 3. (In general: A flow cytometer gives signals particle by particle.)
The target is the same in assay [3]. In words: flow cytometry, MDA-MB-231 cells, n = 1.
Assay [4] shares this target. In words: flow cytometry, DLD-1 cells, average ± SEM.
The target in assay [5] is T2, cynomolgus monkey FAPα on Expi293F cells (cynomolgus monkey (Macaca fascicularis), UniProt Q12884 1-760 (human entry)).
T2 sequence: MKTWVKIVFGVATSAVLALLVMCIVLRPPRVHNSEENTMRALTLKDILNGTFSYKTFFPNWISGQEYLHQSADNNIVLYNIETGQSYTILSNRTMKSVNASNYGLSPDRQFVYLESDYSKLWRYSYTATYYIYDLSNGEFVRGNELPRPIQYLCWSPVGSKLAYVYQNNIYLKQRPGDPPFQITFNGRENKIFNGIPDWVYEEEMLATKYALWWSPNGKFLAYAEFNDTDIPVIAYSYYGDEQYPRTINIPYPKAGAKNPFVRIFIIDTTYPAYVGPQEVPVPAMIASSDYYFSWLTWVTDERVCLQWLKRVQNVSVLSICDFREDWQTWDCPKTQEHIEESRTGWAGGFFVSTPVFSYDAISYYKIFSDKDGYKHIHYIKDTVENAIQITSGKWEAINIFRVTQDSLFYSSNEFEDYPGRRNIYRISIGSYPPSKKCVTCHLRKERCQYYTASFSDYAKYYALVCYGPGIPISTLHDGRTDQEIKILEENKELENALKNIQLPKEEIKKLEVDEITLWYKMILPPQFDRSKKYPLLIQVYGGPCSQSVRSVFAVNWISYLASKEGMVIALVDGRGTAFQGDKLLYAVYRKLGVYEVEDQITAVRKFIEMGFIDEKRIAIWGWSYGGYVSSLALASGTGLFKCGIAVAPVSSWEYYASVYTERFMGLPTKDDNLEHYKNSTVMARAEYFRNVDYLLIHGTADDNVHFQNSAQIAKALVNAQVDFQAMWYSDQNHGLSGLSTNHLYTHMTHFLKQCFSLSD
In words: flow cytometry, Expi293F cells expressing cynomolgus monkey FAPα, n = 1. The method, then: (§1) Binding of BisG1-FAPα-FERL/DR4-FERR, BisG1-FAPα-FEAL/b12-FEAR and IgG1-FAPα-FERL to FAPα of species commonly used for nonclinical toxicology studies was assessed by flow cytometry using Expi293F cells transiently expressing FAPα from different animal species. IgG1-b12 was included as negative control.
(§2) Expi293F cells expressing recombinant FAPα from various species (human, cynomolgus monkey, dog, pig, rat or mouse) were seeded (20,000 cells/well) in 96-Well round bottom plates (Greiner Bio-one, Cat #650101). Antibody dilutions were prepared using FACS buffer, consisting of PBS (Capricorn Scientific, Cat #PBS-10XA, diluted to 1×PBS in distilled water)+1% BSA (Roche, Cat #10735086001)+0.02% Sodium Azide (Bio-World, Cat #41920044-3). Plates were centrifuged, supernatant was removed, and cells were resuspended in 100 μL of antibody dilutions (concentration range 30-0.00017 μg/mL with three-fold serial dilutions using FACS buffer) of BisG1-FAPα-FERL/DR4-FERR, BisG1-FAPα-FEAL/b12-FEAR, IgG1-FAPα-FERL and IgG1-b12 and incubated for 30 min at 4° C. […] After 30 min incubation at 4° C., cells were washed with FACS buffer and resuspended in FACS buffer supplemented with TO-PRO-3 Iodide viability marker (Invitrogen, Cat #T3605, diluted 1:4,000). Antibody binding to viable cells (gMFI of PE on TO-PRO-3 negative cells) was analyzed by flow cytometry on a FACS Celesta and FACS_Diva software (first two experiments) or iQue® 3 and FlowJo software (last experiment). gMFI was determined and visualized using GraphPad Prism. Binding curves were analyzed using nonlinear regression analysis. The concentration (pg/mL) at which 50% of the maximal effect was observed (EC₅₀) was derived from the fitted curves.

The target in assay [6] is T2, cynomolgus monkey FAPα on Expi293F cells. As to the kind of experiment: flow cytometry, Expi293F cells expressing cynomolgus monkey FAPα, n = 2. The method, then:
as §1, §2

B1: BisG1-FAPα-FERL/DR4-FERR (bispecific antibody, human IgG1, kappa, lambda)
heavy 1: EVQLLESGGGLVQPGGSPRLSCEASGFTFSSYALSWVRQAPGKGLEWVSAISGSGGGRYYADSVKGRFTISRDNSKNTLFLQMNSLRAEDTAVYYCAKEGYSSSGTYWDHWGQGTLVTVSSASTKGPSVFPLAPSSKSTSGGTAALGCLVKDYFPEPVTVSWNSGALTSGVHTFPAVLQSSGLYSLSSVVTVPSSSLGTQTYICNVNHKPSNTKVDKRVEPKSCDKTHTCPPCPAPEFERGPSVFLFPPKPKDTLMISRTPEVTCVVVDVSHEDPEVKFNWYVDGVEVHNAKTKPREEQYNSTYRVVSVLTVLHQDWLNGKEYKCKVSNKALPAPIEKTISKAKGQPREPQVYTLPPSREEMTKNQVSLTCLVKGFYPSDIAVEWESNGQPENNYKTTPPVLDSDGSFLLYSKLTVDKSRWQQGNVFSCSVMHEALHNHYTQKSLSLSPG
light 1: AIQMTQSPSSVSASVGDRVTITCRASQGVSSWLAWYQQKPGRAPKLLIYVASTLQSGVPSRFSGSGSGTDFTLTINSLQPEDFATYYCQQANSFPPTFGQGTRLEMKRTVAAPSVFIFPPSDEQLKSGTASVVCLLNNFYPREAKVQWKVDNALQSGNSQESVTEQDSKDSTYSLSSTLTLSKADYEKHKVYACEVTHQGLSSPVTKSFNRGEC
heavy 2: QVQLQESGPGLVKPSGTLSLTCAVSGGSISSYSWWSWIRQPPGKGLEWIGELYHSGSTNYNPSLKSRVTISVDKSKNQFSLKLRSVTAADTAVYYCVRGVATIDYWGQGTLVTVSSASTKGPSVFPLAPSSKSTSGGTAALGCLVKDYFPEPVTVSWNSGALTSGVHTFPAVLQSSGLYSLSSVVTVPSSSLGTQTYICNVNHKPSNTKVDKRVEPKSCDKTHTCPPCPAPEFERGPSVFLFPPKPKDTLMISRTPEVTCVVVDVSHEDPEVKFNWYVDGVEVHNAKTKPREEQYNSTYRVVSVLTVLHQDWLNGKEYKCKVSNKALPAPIEKTISKAKGQPREPQVYTLPPSREEMTKNQVSLTCLVKGFYPSDIAVEWESNGQPENNYKTTPPVLDSDGSFFLYSRLTVDKSRWQQGNVFSCSVMHEALHNHYTQKSLSLSPG
light 2: QSALTQPPSASGSPGQSVTISCTGTSSDVGGYNFVSWYQQDPGKAPKLLIYEVTKRPSGVPDRFSGSKSGNTASLTVSGLQAEDEADYYCSSYAGSNNVMFGGGTKLTVLGQPKAAPSVTLFPPSSEELQANKATLVCLISDFYPGAVTVAWKADSSPVKAGVETTTPSKQSNNKYAASSYLSLTPEQWKSHRSYSCQVTHEGSTVEKTVAPTECS
notes: Human IgG1 bispecific made by controlled Fab-arm exchange of IgG1-FAPα-FERL and IgG1-DR4-FERR; monovalent for FAPα and for DR4; also called GEN1057
Regarding B1, the EC50 (usually the concentration that produces a half-maximal response) was determined as 0.55 µg/mL in assay [1]; 0.53 µg/mL in assay [2]; 1.12 µg/mL in assay [3]; 0.72 µg/mL in assay [4]; 0.24 µg/mL in assay [5]; 0.36 µg/mL in assay [6].

The record behind these values is US20250002610A1 (Genmab, published 2025).
